According to patent US20250236667A1, “ANTIBODIES TO MUTANT CALRETICULIN AND USES THEREOF” (CENTRAL ADELAIDE LOCAL HEALTH NETWORK INC, priority 2021, published 2025):

Columns and labels:
[1] = system: mutant CALR neoepitope peptides; test: Binding of 4D7 to peptides covering regions of the immunizing neopeptide; design: species or system human
Experimental: B. Diluting concentrations of 4D7 to bound full-length 30 amino acid peptide compared to scrambled, C-terminal and N-terminal 11 amino acid peptides as shown in A (n=3). C. Scatchard analysis showing dissociation constant of 4D7 using I^125-labelled and unlabelled 4D7 bound to full-length 30 amino acid peptide (n=3). D. Histogram showing fluorescence intensity of 4D7 conjugated to phycoerythrin at a 4 μg/mL TF-1 TpoR CALR^del 61 vs TF-1 TpoR compared to unstained. E. TF-1 TpoR cells with endogenous wild type CALR cultured in the presence of TPO and 2, 10 or 20 μg/mL 4D7 anti-mutant CALR antibody or 20 μg/mL control IgG antibody (n=3). F. Proliferation curves of factor-independent TF-1 TpoR CALR^del61 cells cultured with 2, 10 or 20 μg/mL 4D7 or 20 μg/mL of control IgG antibody (n=3). G Proliferation curves of factor-independent TF-1 TpoR CALR^del52 cells cultured with 10 or 20 µg/mL 4D7 or 20 μg/mL of control IgG antibody (n=3). Data information: For panels E-G, bars represent standard error of the mean summarizing 3 independent experiments performed in triplicate, with a one-way ANOVA with Bonferroni correction used to determine statistical significance.

[2] = system: phospho-STAT1,3,5 and phospho-ERK in TF-1 cells expressing TpoR alone; test: Western blot of STAT/ERK signalling; format: cell-based, human; conditions: 10 or 20 μg/mL for 4 or 8 hours, in presence of TPO
Experimental: (§1) A. Cell extracts blotted for phospho-STAT5, total STAT5, phospho-ERK, total ERK and actin from TF-1 TpoR cells after incubation with 10 or 20 μg/mL 4D7 or IgG for 4 or 8 hours, in presence of TPO. The last line indicates TPO withdrawal. B. Similar experiment using TPO-independent TF-1 TpoR CALR^del61 cells. C. Similar experiment using TPO-independent TF-1 TpoR CALR^del52 cells at 8 hours. D. Fraction of apoptotic sub-Go population of TF-1 TpoR CALR^del61 cells after 48 hours of 4D7 or IgG treatment (n=3). E. Western blot showing caspase 3 cleavage occurring within 24 hours of TPO withdrawal in TPO dependent TF-1 TpoR cells. An increase in cleaved caspase 3 is observed after 48 hours of treatment with 20 μg/mL 4D7 in TF-1 TpoR CALR^del61 and TF-1 TpoR CALR^del52 cells. F. Western blot of TpoR immunoprecipitation under non-reducing conditions showing associated CALR 50 kDa monomers and 100 kDa dimers (arrowheads) present only in TF-1 TpoR CALR^del61 disrupted by 8 hour treatment with 20 μg/mL 4D7 but not PBS or 20 μg/mL IgG. CALR monomers & dimers are detectable by polyclonal anti-wild type CALR or anti-mutant CALR monoclonal antibodies. Arrowheads, detected mutant CALR protein: asterisk, non-specific bands. G. Proposed model for the mechanism of action of 4D7 on mutant CALR. In the active form, mutant CALR dimers bound to TpoR form a constitutively activate receptor complex which is disrupted by 4D7 with blockade in STAT and ERK signalling. (Adapted from Masubuchi et al. (2020), Rivera et al (2021)). […]
(§2) A. Cell extracts blotted for phospho-STAT1, total STAT1, phospho-STAT3, total STAT3 and actin from TF-1 TpoR cells after incubation with 10 or 20 μg/mL 4D7 or IgG for 4 or 8 hours as indicated. […] Cells were harvested and fixed and stained with propidium iodide and their DNA contents were analysed. […] E. Western blot showing specific co-immunoprecipitation of mutant CALR^del61 cells with TpoR anti-FLAG antibody under reducing conditions detected by total and mutant specific CALR antibodies. Arrowheads represent detected CALR protein. […]

[3] = system: phospho-STAT1,3,5 and phospho-ERK in TF-1 TpoR CALR^del61 cells; test: Western blot of STAT/ERK signalling; format: cell-based, human; conditions: 10 or 20 μg/mL; 4 and 8 hours
Experimental: as §1, §2

[4] = system: phospho-STAT1,3,5 and phospho-ERK in TF-1 TpoR CALR^del52 cells; test: Western blot of STAT/ERK signalling; format: cell-based, human; conditions: 10 or 20 μg/mL; 8 hours
Experimental: as §1, §2

[5] = system: TF-1 TpoR CALR^del61 cells; test: Cell proliferation, trypan blue exclusion; format: cell-based, human; conditions: over 5 days at 2, 10 and 20 μg/mL
Experimental: […] Cells were seeded in triplicate and each well was counted in triplicate every 24 hours for 5 days using trypan blue exclusion.

B1: 4D7: rat monoclonal IgG2a antibody against the mutant CALR neoepitope; VH SEQ ID NO: 5, VL SEQ ID NO: 7 (antibody, listed as Rattus rattus, V domains shown)
VH: QVQLQQSGAELAKPGSSVKISCKASGYTFTNYDMSWIKQRPGQALEWIGAINPGNGVTDYNEKFRGKATLTVDKSSSTAFMQLSSLTPEDTAVYHCAREYRDNYGYFDYWGQGVMVTVSS
VL: DIVLTQTPVSLSVTLGDQASISCRSSQSLEYSDGYTYLDWFLQKPGQSPQLLIYEVSSRFSGVPDRFIGRGSGTDFTLKISRVEPEDLGVYYCFQATHDPFTFGSGTKLEIK
binding to C-terminal portion of the immunogen ([1]; C-terminal 11 amino acid peptide): no binding | region of the immunizing neopeptide to which binding was mapped ([1]; peptides covering different regions of the neopeptide): 11 amino acids of the N-terminus | binding to scrambled peptide ([1]; scrambled peptide): no binding | inhibition of signalling [2]: no inhibition of signalling | constitutive factor-independent phospho-STAT1,3,5 and phospho-ERK [3]: blockade | constitutive factor-independent phospho-STAT1,3,5 and phospho-ERK [4]: blockade | TPO-independent cell growth [5]: blockade of TPO-independent cell growth
